US8008547B2, “Glyphosate-N-acetyltransferase (GAT) genes” (E.I. duPont de Nemours, priority 2000, dated 2011)

B1: SEQ ID NO: 512: GAT polypeptide (protein)
chain: MIEVKPINAEDTYEIRHRILRPNQPLEACKYETDLLGGTFHLGGYYRGKLISIASFHNAEHSELEGQKQYQLRGMATLEGYREQKAGSTLIRHAEELLRKKGADLLWCNARTSVSGYYKKLGFSEQGEVYDIPPIGPHILMYKKLT
modifications: GAT2_15G8
notes: GAT polypeptide
B2: SEQ ID NO: 286: GAT polypeptide (protein)
chain: MIEVKPINAEDTYEIRHRILRPNQPLEACKYETDLLGGTFHLGGYYRGKLISIASFHQAEHPELEGQKQYQLRGMATLEGYREQKAGSTLIRHAEELLRKKGADLLWCNARTSASGYYKKLGFSEQGEVHDIPPTGPHILMYKKLT
modifications: 12_1F9
notes: GAT polypeptide
B3: SEQ ID NO: 293: GAT polypeptide (protein)
chain: MIEVKPINAEDTYEIRHRILRPNQPLEACKYETDLLGGTFHLGGYYRGKLVSIASFHQAEHPELEGQKQYQLRGMATLEGYREQKAGSTLIRHAEALLRKKGADLLWCNARTSASGYYKKLGFSEQGEVYDIPPTGPHILMYKKLT
modifications: 12_6H6
notes: GAT polypeptide
B4: SEQ ID NO: 291: GAT polypeptide (protein)
chain: MIEVKPINAEDTYEIRHRILRPNQPLEACMYETDLLGGTFHLGGYYRGKLISIASFHQAEHPELEGQKQYQLRGMATLEEYREQKAGSTLIRHAEELLRKKGADLLWCNARTSASGYYKKLGFSEQGGVYDIPPVGPHILMYKKLT
modifications: 12_6D1
notes: GAT polypeptide
B5: SEQ ID NO: 282: GAT polypeptide (protein)
chain: MIEVKPINAEDTYEIRHRILRPNQPLEACKYETDLLGGAFHLGGYYRGKLISIASFHQAEHPELEGQKQYQLRGMATLEGYREQKAGSTLIRHAEELLRKKGADLLWCNARTSASGYYKKLGFSEQGGVYDIPPVGPHILMYKKLT
modifications: 10_8C6
notes: GAT polypeptide
B6: SEQ ID NO: 288: GAT polypeptide (protein)
chain: MIEVKPINAEDTYEIRHRILRPNQPLEACKYETDLLGGTFHLGGYYRGKLISIASFHQAEHPELEGQKQYQLRGMATLEGYREQKAGSTLIRHAEELLRKKGADLLWCNARTSASGYYKKLGFSEQGGVYDIPPVGPHILMYKKLT
modifications: 12_3F1
notes: GAT polypeptide
B7: SEQ ID NO: 285: GAT polypeptide (protein)
chain: MIEVKPINAEDTYEIRHRILRPNQPLEACMYETDLLGGAFHLGGYYQGKLISIASFHKAEHSELEGQKQYQLRGMATLEGYREQKAGSTLIRHAEELLRKKGADLLWCNARTSVRGYYEKLGFSEQGGVYDIPPIGPHILMYKKLT
modifications: 11H3
notes: GAT polypeptide
B8: SEQ ID NO: 292: GAT polypeptide (protein)
chain: MIEVKPINAEDTYEIRHRILRPNQPLEACKYETDLLGGTFHLGGYYRGKLISIASFHQAEHPELEGQKQYQLRGMATLEGYREQKAGSTLIRHAEELLRKKGADLLWCNARTSASGYYKKLGFSEQGEVYDIPPTGPHILMYKKLT
modifications: 12_6F9
notes: GAT polypeptide
B9: SEQ ID NO: 294: GAT polypeptide (protein)
chain: MIEVKPINAEDTYEIRHRILRPNQPLEACKYETDLLGGTFHLGGYYRGKLISIASFHQAEHPELEGQKQYQLRGMATLEGYREQKAGSTLIRHAEELLRKKGADLLWCNARTSASGYYKKLGFSEQGGVYDIPPTGPHILMYKKLT
modifications: 12_7D6
notes: GAT polypeptide
B10: SEQ ID NO: 514: GAT polypeptide (protein)
chain: MIEVKPINAEDTYEIRHRILRPNQPLEACMYETDLLGGTFHLGGYYRGKLISIASFHQAEHSELEGQKQYQLRGMATLEGYREQKAGSTLIRHAEELLRKKGADLLWCNARTSVSGYYKKLGFSEQGGVYDIPPIGPHILMYKKLT
modifications: GAT2_21F1
notes: GAT polypeptide
B11: SEQ ID NO: 289: GAT polypeptide (protein)
chain: MIEVKPINAEDTYEIRHRILRPNQPLEACKYETDLLGGTFHLGGYYRGKLISIASFHQAEHPELEGQKQYQLRGMATLEEYREQKAGSTLIRHAEELLRKKGADLLWCNARTSASGYYKKLGFSEQGEVYDAPPTGPHILMYKKLT
modifications: 12_5C10
notes: GAT polypeptide
B12: SEQ ID NO: 295: GAT polypeptide (protein)
chain: MIEVKPINAEDTYEIRHRILRPNQPLEACKYETDLLGGTFHLGGYYRGKLISIASFHQAEHSELEGQKQYQLRGMATLEGYREQKAGSTLIRHAEELLRKKGADLLWCNARTSASGYYKKLGFSEQGEVYDTPPVGPHILMYKKLT
modifications: 12_7G11
notes: GAT polypeptide
B13: SEQ ID NO: 283: GAT polypeptide (protein)
chain: MIEVKPINAEDTYEIRHRILRPNQPLEACKYETDLLGGTFHLGGYYQGKLISIASFHQAEHSELEGQKQYQLRGMATLEGYREQKAGSTLIRHAEELLRKKGADLLWCNARTSVSGYYKKLGFSEQGGVYDIPPIGPHILMYKKLT
modifications: 11C3
notes: GAT polypeptide
B14: SEQ ID NO: 287: GAT polypeptide (protein)
chain: MIEVKPINAEDTYEIRHRILRPNQPLEACKYETDLLGGTFHLGGYYRGKLVSIASFHQAEHPELEGQKQYQLRGMATLEGYREQKAGSTLIRHAEELLRKKGADLLWCNARTSASGYYKKLGFSEQGEVYDTPPVGPHILMYKKLT
modifications: 12_2G9
notes: GAT polypeptide
B15: SEQ ID NO: 290: GAT polypeptide (protein)
chain: MIEVKPINAEDTYEIRHRILRPNQPLEACKYETDLLGGTFHLGGYYRGKLVSIASFHQAEHPELEGQKQYQLRGMATLEGYREQKAGSTLIRHAEELLRKKGADLLWCNARTSASGYYKKLGFSEQGGVYDIPPVGPHILMYKKLT
modifications: 12_6A10
notes: GAT polypeptide
B16: SEQ ID NO: 513: GAT polypeptide (protein)
chain: MIEVKPINAEDTYEIRHRILRPNQPLEACMYETDLLGGTFHLGGYYRGKLISIASFHQAEHPELEGQKQYQLRGMATLEGYREQKAGSTLIRHAEELLRKKGADLLWCNARTSVSGYYEKLGFSEQGEVCDIPPIGPHILMYKKLT
modifications: GAT2_19H8
notes: GAT polypeptide
B17: SEQ ID NO: 284: GAT polypeptide (protein)
chain: MIEVKPINAEDTYEIRHRILRPNQPLEACMYETDLLGGTFHLGGYYQGKLISIASFHQAEHSELEGQKQYQLRGMATLEGYREQKAGSTLIRHAEELLRKKGADLLWCNARTSASGYYEKLGFSEQGGVYDIPPIGPHILMYKKLA
modifications: 11G3
notes: GAT polypeptide

Assay: Standard protocol for determination of kcat and KM (continuous spectrophotometric assay, Acetyl CoA hydrolysis at 235 nm)
Format: biochemical
Conditions: purified protein, about 23° C., 0.2 mM acetyl CoA; for Kcat: 20 mM HEPES pH 6.8, 10% ethylene glycol; for Km: pH 6.8, glyphosate 0.125 to 10 mM
Procedure, shortened: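 KM from initial rates over 0.125–10 mM glyphosate, fitted by Lineweaver-Burke transformation of Michaelis-Menten; kcat/KM computed as kcat divided by KM. Continuous spectrophotometric read of acetyl-CoA hydrolysis at 235 nm.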

Molecule	Kcat [s⁻¹]	Km [µM]
B1	0.075	2800
B2	1.34	3000
B3	1.51	1600
B4	0.817	1200
B5	0.362	700
B6	0.735	900
B7	0.02	1400
B8	1.48	1900
B9	0.898	1400
B10	0.07	3000
B11	1.49	1500
B12	3.908	2000
B13	0.0467	3100
B14	2.523	1500
B15	0.912	1100
B16	0.0683	2800
B17	0.26	1700
